Assay results taken from article PMC9282251 (Proceedings of the National Academy of Sciences of the …, 2022).

Target: the molecule itself
Test: single-molecule photobleaching and fluorescence intensity analysis

B1: K401-clip labeled with Alexa-647 (domain or fragment)
chain: not shown
modifications: Alexa-647 label (labeling efficiencies of 15% monomer and 58% monomer in two preparations)
stoichiometry N: 2
